{"source": "paper PMC4211736", "key": {"[1]": {"biological_target": "recombinant WT-C100Flag", "assay": "SDS-PAGE, Coomassie stain and Western blot (SDS-stable multimers); recombinant protein run on 4-12% Bis-Tris gels; monomer, dimer and trimer bands cut out, eluted in 150 mM sodium citrate pH 6.8 and rerun; Coomassie stain and blot (6E10, Ab5)"}, "[2]": {"biological_target": "recombinant 3xK-C100Flag", "assay": "SDS-PAGE, Coomassie stain and Western blot (SDS-stable multimers); recombinant protein run on 4-12% Bis-Tris gels; monomer, dimer and trimer bands cut out, eluted in 150 mM sodium citrate pH 6.8 and rerun; Coomassie stain and blot (6E10, Ab5)"}, "[3]": {"biological_target": "G29K/A30K(3xK)-APP695wt", "assay": "SDS-PAGE and Western blot (SDS-stable dimer); CHO cells lysed in RIPA buffer (0.1% SDS); 3-8% Tris-Acetate gel; blot probed with anti-APP C-terminal antibody A8717"}}, "note": "Where “and” joins values, the source holds several entries; their conditions need not be identical. Identical values can stand only once."}
{"substance": "recombinant WT-C100Flag (domain or fragment)", "values": [{"measurement": "stoichiometry N", "setting": "[1]", "result": "2 and 3"}]}
{"substance": "recombinant 3xK-C100Flag (domain or fragment)", "values": [{"measurement": "stoichiometry N", "setting": "[2]", "result": "2 and 3"}]}
{"substance": "G29K/A30K(3xK)-APP695wt (natural protein)", "values": [{"measurement": "stoichiometry N", "setting": "[3]", "result": 2}]}
